Biological target: T1, receptor binding domain (RBD) of the SARS-CoV-2 spike protein (residues 319-541) (SARS-CoV-2, UniProt P0DTC2 319-541)
T1 construct: also called spike RBD protein
Assay: SPR
Conditions: both partners purified

B1: I54C/K341C (M2) mutant sACE2-Fc (Fc fusion)
chain: QSTIEEQAKTFLDKFNHEAEDLFYQSSLASWNYNTNCTEENVQNMNNAGDKWSAFLKEQSTLAQMYPLQEIQNLTVKLQLQALQQNGSSVLSEDKSKRLNTILNTMSTIYSTGKVCNPDNPQECLLLEPGLNEIMANSLDYNERLWAWESWRSEVGKQLRPLYEEYVVLKNEMARANHYEDYGDYWRGDYEVNGVDGYDYSRGQLIEDVEHTFEEIKPLYEHLHAYVRAKLMNAYPSYISPIGCLPAHLLGDMWGRFWTNLYSLTVPFGQKPNIDVTDAMVDQAWDAQRIFKEAEKFFVSVGLPNMTQGFWENSMLTDPGNVQCAVCHPTAWDLGKGDFRILMCTKVTMDDFLTAHNEMGNIQYDMAYAAQPFLLRNGANEGFHEAVGEIMSLSAATPKHLKSIGLLSPDFQEDNETEINFLLKQALTIVGTLPFTYMLEKWRWMVFKGEIPKDQWMKKWWEMKREIVGVVEPVPHDETYCDPASLFHVSNDYSFIRYYTRTLYQFQFQEALCQAAKHEGPLHKCDISNSTEAGQKLFNMLRLGKSEPWTLALENVVGAKNMNVRPLLNYFEPLFTWLKDQNKNSFVGWSTDWSPYAD
notes: also called M2 sACE2-Fc
Kd: 22.1 nM

Reference: paper PMC11432317, “Disulfide Bond Engineering of Soluble ACE2 for Thermal Stability Enhancement” (International Journal of Molecular Sciences, 2024)
